The supplement of paper PMC9170038

System: MS2 coat protein
Test: apparent KD of MS2 coat protein; designed switch direction (-1 OFF switch, 1 ON switch): -1; higher = weaker reporter binding
Method in brief: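 Transcription of designed RNA switches on Illumina chips was done by stalled E. coli RNA polymerase. SNAP-549-labelled MS2 coat protein was then titrated in doubling steps from 0.7 or 1.5 nM to 3 µM, with steps of 0.8–1.5 h at the lowest and 10–20 min at the highest concentration. The per-design median over clusters of curve-fitted normalised fluorescence is reported as apparent KD.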

[1] = input ligand: microRNA oligo, concentration not stated
[2] = Eterna round: R95, input ligand: microRNA oligo, concentration not stated

## UUAAAUCAUGUAGGAUAUGCGUGGAGAAACUAUGCAGAAGGACAUGAGGAUCACCCAUGUGCUUCCGUCUGAGAACAGACGGUA [Mat - Exclusion NG 1 - Mod of JL - D14] (Eterna round: R96, puzzle: Exclusion NG 1)
Input ligand: FMN 200 uM
  apparent KD of MS2 coat protein: 285 nM
[1]
  apparent KD of MS2 coat protein: 43.2 nM
Input ligand: none
  apparent KD of MS2 coat protein: 57.9 nM

## UUAAAUCAUGUAGGAUAUGCGUGGCGAAGCUAUGCAGAAGGACAUGAGGAUCACCCAUGUGCUUCCGUCUGAGUACAGACGGUA [Mat - Exclusion NG 1 - Mod of JL - D11] (Eterna round: R96, puzzle: Exclusion NG 1)
Input ligand: FMN 200 uM
  apparent KD of MS2 coat protein: 221 nM
[1]
  apparent KD of MS2 coat protein: 106 nM
Input ligand: none
  apparent KD of MS2 coat protein: 101 nM

## UUAAGGGACUGAGGAUAUACAUGAAUUAUUUUUGUAGAAGGCAGAUUGUUAGUUUAUUCACUAUACAUGAGGAUCACCCAUGUU [JR_ExcNG1_Sub020] (Eterna round: R96, puzzle: Exclusion NG 1)
[1]
  apparent KD of MS2 coat protein: 18.3 nM

## UUAAUAUAUCAGGAUAUGAUUAUAUGUGUUAAAUCAGAAGGGAUAACAUGAGGAUCACCCAUGUUGUGGAGUGA [JR_Ex6_Sub033] (Eterna round: R97, puzzle: Exclusion 6)
Input ligand: FMN 200 uM
  apparent KD of MS2 coat protein: 303 nM
Input ligand: none
  apparent KD of MS2 coat protein: 92.8 nM

## UUAAUAUAUGUAGGAUAUGCGUGGCGAAGCUAUGCAGAAGGACAUGAGGAUCACCCAUGUUCCAGCGUCCGCGUACGGAUGCAA [JL Eng1 1.21 mod 11] (Eterna round: R96, puzzle: Exclusion NG 1)
Input ligand: FMN 200 uM
  apparent KD of MS2 coat protein: 16 nM
[1]
  apparent KD of MS2 coat protein: 12.3 nM
Input ligand: none
  apparent KD of MS2 coat protein: 13.3 nM

## UUAAUUAAUUAAGCGCAAGAUCACAUGAGGAUCACCCAUGUAUAGGAUAUCAGCUCGUGUAGAGCUGAGAAGGAUACAUAGCGC [ExNG3/2-A3] (Eterna round: R96, puzzle: Exclusion NG 3)
Input ligand: FMN 200 uM
  apparent KD of MS2 coat protein: 1030 nM
[1]
  apparent KD of MS2 coat protein: 184 nM
Input ligand: none
  apparent KD of MS2 coat protein: 143 nM

## UUACCUAGUGUUAGGAUAUGCGACGGGUGACCGUUGCAGAAGGAACAUGAGGAUCACCCAUGUUUAAUAAAAUC [JL-BMX4-4.45 ViennaUCT mod] (Eterna round: R97, puzzle: Brourd's mod of Exclusion 4)
Input ligand: FMN 200 uM
  apparent KD of MS2 coat protein: 53.1 nM
Input ligand: none
  apparent KD of MS2 coat protein: 12.6 nM

## UUACUCCUCGCUUGGUCACACAUGAGGAUCACCCAUGUGGGAUGCCAUGGCGUCUCAUCAAGCUUCUUUUGCUCGUG [Eternabot (Original) Solution 26] (Eterna round: R97, puzzle: Sensor, turn-off variant 1)
Input ligand: FMN 200 uM
  apparent KD of MS2 coat protein: 20.9 nM
Input ligand: none
  apparent KD of MS2 coat protein: 23.8 nM

## UUAGUAUUGCAAGGAUAUGUUUAUGUUUAUUUUCCUCUUACAUGAGGAUCACCCAUGUUUAACUUACAGAAGGUGCUAUGAUUU [JR_ExcNG2_Sub032] (Eterna round: R96, puzzle: Exclusion NG 2)
Input ligand: FMN 200 uM
  apparent KD of MS2 coat protein: 1120 nM
[1]
  apparent KD of MS2 coat protein: 477 nM
Input ligand: none
  apparent KD of MS2 coat protein: 1030 nM

## UUAUACCUAGGAUAUACCUUUGGGUGUAGCCUAAUGUCUGGACAUGAGGAUCACCCAUGUAGAAGGAGGCGAAA [EX2 A.7] (Eterna round: R97, puzzle: Exclusion 2)
Input ligand: FMN 200 uM
  apparent KD of MS2 coat protein: 244 nM
Input ligand: none
  apparent KD of MS2 coat protein: 78 nM

## UUAUAUAAUGUGAGGAUAUGCUGGUCGAGAGAUCAGCAGAAGGCACAUGAGGAUCACCCAUGUAGUAAAUUUUA [Mat - Exclusion 4 - JL Mod - D14] (puzzle: Brourd's mod of Exclusion 4)
[2]
  apparent KD of MS2 coat protein: 19.8 nM

## UUAUAUAGUGUGAGGAUAUGCUGGUCCUUGGAUCAGCAGAAGGCACAUGAGGAUCACCCAUGUAGUUAAUUAUA [Mat - Exclusion 4 - JL Mod - D15] (puzzle: Brourd's mod of Exclusion 4)
[2]
  apparent KD of MS2 coat protein: 30.1 nM

## UUAUCUACUGAGGAUAUUAUAUUACCCGACUGAUAAGAAGGCAGUACAUGAGGAUCACCCAUGUGGGUAGCCAU [Polaris11] (Eterna round: R97, puzzle: Exclusion 6)
Input ligand: FMN 200 uM
  apparent KD of MS2 coat protein: 23.2 nM
Input ligand: none
  apparent KD of MS2 coat protein: 20.8 nM

## UUAUUAAGUGUGAGGAUAUGCUGGUCCUUGGAUCAGCAGAAGGCACAUGAGGAUCACCCAUGUACAUUAUUUUA [Mat - Exclusion 4 - JL Mod - D28] (puzzle: Brourd's mod of Exclusion 4)
[2]
  apparent KD of MS2 coat protein: 31.6 nM

## UUAUUACAAGCAAGAUCCCACAUGAGGAUCACCCAUGUGCUCGUCUUAUAAGGUACAGUGACGAAAGUCACAGUACC [Sensor 3, v1 - 0] (Eterna round: R96, puzzle: Sensor v3, turn-off variant 1)
Input ligand: FMN 200 uM
  apparent KD of MS2 coat protein: 23.1 nM
[1]
  apparent KD of MS2 coat protein: 369 nM
Input ligand: none
  apparent KD of MS2 coat protein: 25.9 nM

## UUAUUACAAGCAAGAUCCCACAUGAGGAUCACCCAUGUGCUCGUCUUAUAAGGUACAGUGACGAAAGUCACAGUACC [Sensor 3, v1 - 0] (puzzle: Sensor v3, turn-off variant 1)
Eterna round: R95, input ligand: FMN 200 uM
  apparent KD of MS2 coat protein: 29.4 nM
[2]
  apparent KD of MS2 coat protein: 795 nM
Eterna round: R95, input ligand: none
  apparent KD of MS2 coat protein: 22.3 nM

## UUAUUAUAUGUAGGAUAUGCAUAUUAUUAUUAUGCAGAAGGACAUGAGGAUCACCCAUGUAUAUUAUUGUUAUAUAUUAUAUAU [Title] (Eterna round: R96, puzzle: Exclusion NG 1)
[1]
  apparent KD of MS2 coat protein: 21 nM

## UUAUUGUGAGGAUAUCCAAUAUAUGACAUGAGGAUCACCCAUGUUUCCACUCGUACCUCCGGAGAAGGCACUUAUA [Ex5 #47] (Eterna round: R97, puzzle: Exclusion 5)
Input ligand: FMN 200 uM
  apparent KD of MS2 coat protein: 28.6 nM
Input ligand: none
  apparent KD of MS2 coat protein: 32.3 nM

## UUCACAUGGACAUAAGAUCACAUGAGGAUCACCCAUGUGAAUAACAAGCUUUUUGUUCGUCUUAUGUCCAAUAAUAU [Stov1/14-B3] (Eterna round: R97, puzzle: Sensor, turn-off variant 1)
Input ligand: FMN 200 uM
  apparent KD of MS2 coat protein: 13.9 nM
Input ligand: none
  apparent KD of MS2 coat protein: 12.2 nM

## UUCAUGUGAGGAUAUAGUACUUCUUCUAUUAUUAUUGAGUACUAGAAGGCACAUGAGGAUCACCCAUGUAGUAC [Ex4 - 3 - 43] (Eterna round: R96, puzzle: Exclusion 4)
Input ligand: FMN 200 uM
  apparent KD of MS2 coat protein: 21.8 nM
[1]
  apparent KD of MS2 coat protein: 22.1 nM
Input ligand: none
  apparent KD of MS2 coat protein: 39.1 nM

## UUCAUGUGAGGAUAUAGUACUUCUUCUAUUAUUAUUGAGUACUAGAAGGCACAUGAGGAUCACCCAUGUAGUAC [Ex4 - 3 - 43] (puzzle: Exclusion 4)
[2]
  apparent KD of MS2 coat protein: 39.1 nM

## UUCAUGUUAGGAUAUUCCGCUGCAGAGAAAGAGUGCAGAAUGAAGAAGGGACAUGAGGAUCACCCAUGUUCCAA [EX4 A.8] (Eterna round: R97, puzzle: Exclusion 4)
Input ligand: FMN 200 uM
  apparent KD of MS2 coat protein: 19.5 nM
Input ligand: none
  apparent KD of MS2 coat protein: 15.5 nM

## UUCCAACGAGGAUAUCGAUGGUGGAACAUGAGGAUCACCCAUGUAUGAGAUAGUGUAGUUCGAGAAGGCGUUCAGU [JR_E5_Sub055] (puzzle: Exclusion 5)
[2]
  apparent KD of MS2 coat protein: 41.9 nM

## UUCCCGCGCGUGAGGAUAUGCUGAUCCCAGGAUUAGCAGAAGGCACAUGAGGAUCACCCAUGUCCAACUUGUCU [LRO-BmodExc4-14- Bluer = mod of Colors by Tatyana Zabanova] (Eterna round: R97, puzzle: Brourd's mod of Exclusion 4)
Input ligand: FMN 200 uM
  apparent KD of MS2 coat protein: 38.5 nM
Input ligand: none
  apparent KD of MS2 coat protein: 31.6 nM

## UUCCGACAUGAGGAUCACCCAUGUAAGGAUAUGCACUAGAGGGCAAACCCUCUUAACGGCAGAAGGUGCAGGGA [Qudile] (Eterna round: R97, puzzle: Exclusion 1)
Input ligand: FMN 200 uM
  apparent KD of MS2 coat protein: 115 nM
Input ligand: none
  apparent KD of MS2 coat protein: 15 nM
